From publication doi:10.1101/2025.04.14.648764 (bioRxiv, 2025)

B1: AGT WT (enzyme, human)
chain: MASHKLLVTPPKALLKPLSIPNQLLLGPGPSNLPPRIMAAGGLQMIGSMSKDMYQIMDEIKEGIQYVFQTRNPLTLVISGSGHCALEAALVNVLEPGDSFLVGANGIWGQRAVDIGERIGARVHPMTKDPGGHYTLQEVEEGLAQHKPVLLFLTHGESSTGVLQPLDGFGELCHRYKCLLLVDSVASLGGTPLYMDRQGIDILYSGSQKALNAPPGTSLISFSDKAKKKMYSRKTKPFSFYLDIKWLANFWGCDDQPRMYHHTIPVISLYSLRESLALIAEQGLENSWRQHREAAAYLHGRLQALGLQLFVKDPALRLPTVTTVAVPAGYDWRDIVSYVIDHFDIEIMGGLGPSTGKVLRIGLLGCNATRENVDRVTEALRAALQHCPKKKL
B2: AGT LM-p.G170R p.S81A (enzyme, human)
chain: MASHKLLVTPLKALLKPLSIPNQLLLGPGPSNLPPRIMAAGGLQMIGSMSKDMYQIMDEIKEGIQYVFQTRNPLTLVISGAGHCALEAALVNVLEPGDSFLVGANGIWGQRAVDIGERIGARVHPMTKDPGGHYTLQEVEEGLAQHKPVLLFLTHGESSTGVLQPLDGFRELCHRYKCLLLVDSVASLGGTPLYMDRQGIDILYSGSQKALNAPPGTSLISFSDKAKKKMYSRKTKPFSFYLDIKWLANFWGCDDQPRMYHHTIPVISLYSLRESLALIAEQGLENSWRQHREAAAYLHGRLQALGLQLFVKDPALRLPTVTTVAVPAGYDWRDIVSYVMDHFDIEIMGGLGPSTGKVLRIGLLGCNATRENVDRVTEALRAALQHCPKKKL
B3: AGT LM-p.I244T p.S81A (enzyme, human)
chain: MASHKLLVTPLKALLKPLSIPNQLLLGPGPSNLPPRIMAAGGLQMIGSMSKDMYQIMDEIKEGIQYVFQTRNPLTLVISGAGHCALEAALVNVLEPGDSFLVGANGIWGQRAVDIGERIGARVHPMTKDPGGHYTLQEVEEGLAQHKPVLLFLTHGESSTGVLQPLDGFGELCHRYKCLLLVDSVASLGGTPLYMDRQGIDILYSGSQKALNAPPGTSLISFSDKAKKKMYSRKTKPFSFYLDTKWLANFWGCDDQPRMYHHTIPVISLYSLRESLALIAEQGLENSWRQHREAAAYLHGRLQALGLQLFVKDPALRLPTVTTVAVPAGYDWRDIVSYVMDHFDIEIMGGLGPSTGKVLRIGLLGCNATRENVDRVTEALRAALQHCPKKKL
B4: AGT LM-p.G170R p.S81D (enzyme, human)
chain: MASHKLLVTPLKALLKPLSIPNQLLLGPGPSNLPPRIMAAGGLQMIGSMSKDMYQIMDEIKEGIQYVFQTRNPLTLVISGDGHCALEAALVNVLEPGDSFLVGANGIWGQRAVDIGERIGARVHPMTKDPGGHYTLQEVEEGLAQHKPVLLFLTHGESSTGVLQPLDGFRELCHRYKCLLLVDSVASLGGTPLYMDRQGIDILYSGSQKALNAPPGTSLISFSDKAKKKMYSRKTKPFSFYLDIKWLANFWGCDDQPRMYHHTIPVISLYSLRESLALIAEQGLENSWRQHREAAAYLHGRLQALGLQLFVKDPALRLPTVTTVAVPAGYDWRDIVSYVMDHFDIEIMGGLGPSTGKVLRIGLLGCNATRENVDRVTEALRAALQHCPKKKL
B5: AGT LM-p.I244T p.S81D (enzyme, human)
chain: MASHKLLVTPLKALLKPLSIPNQLLLGPGPSNLPPRIMAAGGLQMIGSMSKDMYQIMDEIKEGIQYVFQTRNPLTLVISGDGHCALEAALVNVLEPGDSFLVGANGIWGQRAVDIGERIGARVHPMTKDPGGHYTLQEVEEGLAQHKPVLLFLTHGESSTGVLQPLDGFGELCHRYKCLLLVDSVASLGGTPLYMDRQGIDILYSGSQKALNAPPGTSLISFSDKAKKKMYSRKTKPFSFYLDTKWLANFWGCDDQPRMYHHTIPVISLYSLRESLALIAEQGLENSWRQHREAAAYLHGRLQALGLQLFVKDPALRLPTVTTVAVPAGYDWRDIVSYVMDHFDIEIMGGLGPSTGKVLRIGLLGCNATRENVDRVTEALRAALQHCPKKKL
B6: AGT LM-p.I244T (enzyme, human)
chain: MASHKLLVTPLKALLKPLSIPNQLLLGPGPSNLPPRIMAAGGLQMIGSMSKDMYQIMDEIKEGIQYVFQTRNPLTLVISGSGHCALEAALVNVLEPGDSFLVGANGIWGQRAVDIGERIGARVHPMTKDPGGHYTLQEVEEGLAQHKPVLLFLTHGESSTGVLQPLDGFGELCHRYKCLLLVDSVASLGGTPLYMDRQGIDILYSGSQKALNAPPGTSLISFSDKAKKKMYSRKTKPFSFYLDTKWLANFWGCDDQPRMYHHTIPVISLYSLRESLALIAEQGLENSWRQHREAAAYLHGRLQALGLQLFVKDPALRLPTVTTVAVPAGYDWRDIVSYVMDHFDIEIMGGLGPSTGKVLRIGLLGCNATRENVDRVTEALRAALQHCPKKKL
B7: AGT WT p.S81A (enzyme, human)
chain: MASHKLLVTPPKALLKPLSIPNQLLLGPGPSNLPPRIMAAGGLQMIGSMSKDMYQIMDEIKEGIQYVFQTRNPLTLVISGAGHCALEAALVNVLEPGDSFLVGANGIWGQRAVDIGERIGARVHPMTKDPGGHYTLQEVEEGLAQHKPVLLFLTHGESSTGVLQPLDGFGELCHRYKCLLLVDSVASLGGTPLYMDRQGIDILYSGSQKALNAPPGTSLISFSDKAKKKMYSRKTKPFSFYLDIKWLANFWGCDDQPRMYHHTIPVISLYSLRESLALIAEQGLENSWRQHREAAAYLHGRLQALGLQLFVKDPALRLPTVTTVAVPAGYDWRDIVSYVIDHFDIEIMGGLGPSTGKVLRIGLLGCNATRENVDRVTEALRAALQHCPKKKL
B8: AGT LM (enzyme, human)
chain: MASHKLLVTPLKALLKPLSIPNQLLLGPGPSNLPPRIMAAGGLQMIGSMSKDMYQIMDEIKEGIQYVFQTRNPLTLVISGSGHCALEAALVNVLEPGDSFLVGANGIWGQRAVDIGERIGARVHPMTKDPGGHYTLQEVEEGLAQHKPVLLFLTHGESSTGVLQPLDGFGELCHRYKCLLLVDSVASLGGTPLYMDRQGIDILYSGSQKALNAPPGTSLISFSDKAKKKMYSRKTKPFSFYLDIKWLANFWGCDDQPRMYHHTIPVISLYSLRESLALIAEQGLENSWRQHREAAAYLHGRLQALGLQLFVKDPALRLPTVTTVAVPAGYDWRDIVSYVMDHFDIEIMGGLGPSTGKVLRIGLLGCNATRENVDRVTEALRAALQHCPKKKL
B9: AGT LM-p.G170R (enzyme, human)
chain: MASHKLLVTPLKALLKPLSIPNQLLLGPGPSNLPPRIMAAGGLQMIGSMSKDMYQIMDEIKEGIQYVFQTRNPLTLVISGSGHCALEAALVNVLEPGDSFLVGANGIWGQRAVDIGERIGARVHPMTKDPGGHYTLQEVEEGLAQHKPVLLFLTHGESSTGVLQPLDGFRELCHRYKCLLLVDSVASLGGTPLYMDRQGIDILYSGSQKALNAPPGTSLISFSDKAKKKMYSRKTKPFSFYLDIKWLANFWGCDDQPRMYHHTIPVISLYSLRESLALIAEQGLENSWRQHREAAAYLHGRLQALGLQLFVKDPALRLPTVTTVAVPAGYDWRDIVSYVMDHFDIEIMGGLGPSTGKVLRIGLLGCNATRENVDRVTEALRAALQHCPKKKL
B10: AGT LM p.S81D (enzyme, human)
chain: MASHKLLVTPLKALLKPLSIPNQLLLGPGPSNLPPRIMAAGGLQMIGSMSKDMYQIMDEIKEGIQYVFQTRNPLTLVISGDGHCALEAALVNVLEPGDSFLVGANGIWGQRAVDIGERIGARVHPMTKDPGGHYTLQEVEEGLAQHKPVLLFLTHGESSTGVLQPLDGFGELCHRYKCLLLVDSVASLGGTPLYMDRQGIDILYSGSQKALNAPPGTSLISFSDKAKKKMYSRKTKPFSFYLDIKWLANFWGCDDQPRMYHHTIPVISLYSLRESLALIAEQGLENSWRQHREAAAYLHGRLQALGLQLFVKDPALRLPTVTTVAVPAGYDWRDIVSYVMDHFDIEIMGGLGPSTGKVLRIGLLGCNATRENVDRVTEALRAALQHCPKKKL
B11: AGT WT p.S81D (enzyme, human)
chain: MASHKLLVTPPKALLKPLSIPNQLLLGPGPSNLPPRIMAAGGLQMIGSMSKDMYQIMDEIKEGIQYVFQTRNPLTLVISGDGHCALEAALVNVLEPGDSFLVGANGIWGQRAVDIGERIGARVHPMTKDPGGHYTLQEVEEGLAQHKPVLLFLTHGESSTGVLQPLDGFGELCHRYKCLLLVDSVASLGGTPLYMDRQGIDILYSGSQKALNAPPGTSLISFSDKAKKKMYSRKTKPFSFYLDIKWLANFWGCDDQPRMYHHTIPVISLYSLRESLALIAEQGLENSWRQHREAAAYLHGRLQALGLQLFVKDPALRLPTVTTVAVPAGYDWRDIVSYVIDHFDIEIMGGLGPSTGKVLRIGLLGCNATRENVDRVTEALRAALQHCPKKKL
B12: AGT LM p.S81A (enzyme, human)
chain: MASHKLLVTPLKALLKPLSIPNQLLLGPGPSNLPPRIMAAGGLQMIGSMSKDMYQIMDEIKEGIQYVFQTRNPLTLVISGAGHCALEAALVNVLEPGDSFLVGANGIWGQRAVDIGERIGARVHPMTKDPGGHYTLQEVEEGLAQHKPVLLFLTHGESSTGVLQPLDGFGELCHRYKCLLLVDSVASLGGTPLYMDRQGIDILYSGSQKALNAPPGTSLISFSDKAKKKMYSRKTKPFSFYLDIKWLANFWGCDDQPRMYHHTIPVISLYSLRESLALIAEQGLENSWRQHREAAAYLHGRLQALGLQLFVKDPALRLPTVTTVAVPAGYDWRDIVSYVMDHFDIEIMGGLGPSTGKVLRIGLLGCNATRENVDRVTEALRAALQHCPKKKL

Target: the molecule itself
Assay: dynamic light scattering

Stoichiometry N, 2:
B1
B2
B3
B4
B5
B6
B7
B8
B9
B10
B11
B12
